Data taken from patent publication US20060058236A1, “Endogenously-formed conjugate of albumin” (priority 2004, published 2006).

Assays:
[1] = target: human serum albumin (Homo sapiens, UniProt P02768); assay: Incubation of Epo conjugates with human serum albumin, SDS-PAGE and anti-HSA immunoblot; type: in vitro ADME; conditions: 0.05% HSA, 21 hours at 37° C., no small molecule thiols
Protocol: mPEG-DTB-Epo (prepared as described above), mPEG-Epo, or Epo (0.2 mg/mL) was incubated with 0.05% human serum albumin (HSA) in 100 mM HEPES, 2 mM EDTA, pH 7.5 buffer for 21 hours at 37° C. […] The SDS-PAGE gel stained with SYPRO™ red protein stain is shown in FIG. 14A and an immunoblot probed with anti-HSA is shown in FIG. 14B.

[2] = Pharmacokinetic profile in rats dosed intravenously with 125I-labeled lysozyme or its PEG conjugates; type: in vivo, rat; conditions: intravenous
Protocol: Lysozyme (66 mg in […] in 0.1 M sodium phosphate buffer pH 7.3) was mixed with 605 μCi of Na^125I (ICN Biomedicals, Irvine, Calif.), in Iodo-Gen® coated tube (Pierce Chemical Company, Rockford, Ill.), and allowed to react for 1 hour at room temperature with 20 min intervals mixing. The iodination reaction was stopped by removing the free ^125I on a Sephadex G-25F gel filtration column (17 mL), and collecting the ^125I-lysozyme, which was then reacted with either mPEG-DTB-NPC and mPEG-NPC, and purified by cation exchange chromatography as described above.
Male Sprague-Dawley rats (250-330 g each, 3 animals per formulation per experiment) were dosed either by intravenous (via a lateral tail vein) or by subcutaneous (dorsally above the right rear leg) with ^125I labeled lysozyme or its PEG conjugates (0.35 mL, 0.4 mg protein/mL, 4.6×10^6 cpm/mL). Blood samples (0.4 mL) were collected via the retro-orbital sinus. All injections blood collections were performed while the animals were under inhaled anesthesia (isoflurane/O2). Samples were collected on heparin into polypropylene tubes and stored on ice for no longer than one hour before being pipetted in triplicate (0.100 mL) into fresh polypropylene tubes. Blood samples were collected at the following times after dosing (no single rat had blood collected at all of the following times): 30 sec, 15 min, 30 min and 1, 2, 3, 4, 6, 8, 24, 48, 72, 96, 120 and 168 hours post-dose. Note that the last 4 time points were added for the longer subcutaneous experiments. The samples were then counted for ^125I in a Packard™ 5000 gamma counter. The cpm counts were converted to concentration according to the specific activity of the samples.

[3] = target: T1, bovine serum albumin (Bos taurus, UniProt P02769); assay: Decomposition of PEG-DTB-lysozyme conjugates in 4% BSA solution, HPLC; type: in vitro ADME; conditions: room temperature, pH 7.4, HPLC after Q spin column
T1 construct: purchased Proliant (Ankeny, IA)
T1 sequence (P02769 25-607): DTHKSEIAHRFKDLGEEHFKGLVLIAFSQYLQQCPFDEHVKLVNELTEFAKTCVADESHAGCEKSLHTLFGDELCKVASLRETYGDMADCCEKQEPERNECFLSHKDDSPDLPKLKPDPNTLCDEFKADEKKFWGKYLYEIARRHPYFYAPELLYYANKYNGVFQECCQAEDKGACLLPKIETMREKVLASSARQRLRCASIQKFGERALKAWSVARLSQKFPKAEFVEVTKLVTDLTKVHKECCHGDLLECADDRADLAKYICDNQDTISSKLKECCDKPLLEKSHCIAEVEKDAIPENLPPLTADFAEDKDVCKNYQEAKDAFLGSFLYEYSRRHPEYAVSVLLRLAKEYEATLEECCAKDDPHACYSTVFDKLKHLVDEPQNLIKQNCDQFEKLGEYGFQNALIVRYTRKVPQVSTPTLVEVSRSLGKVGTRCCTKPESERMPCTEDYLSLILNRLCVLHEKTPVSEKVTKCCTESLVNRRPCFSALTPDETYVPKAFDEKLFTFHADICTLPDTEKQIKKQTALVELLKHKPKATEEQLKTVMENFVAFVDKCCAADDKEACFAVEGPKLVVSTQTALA
Protocol: (§1) Conjugates of PEG-DTB-lysozyme were prepared as described in Example 1A. The conjugates (100 μg/mL=0.066 mM) were incubated in 0.6 mM cysteine or with 4% BSA at room temperature (22-24° C.), in 10 mM phosphate buffer pH 7.4 containing 2 mM EDTA. Aliquots were taken at various time points, reactions were stopped with 20 mM iodoacetamide, and stored at 2-8° C. until analysis.
For the conjugates incubated with BSA, analysis of the samples was done by diluting the samples 1/10 in 10 mM PO4 pH 7.4, passing through Q spin columns (Vivascience) in order to trap the albumin and any of its related products, and then analyzing on the same CM column.
(§2) HPLC was performed with the following conditions: Column: TOSOH TSK CM-5PW 10 micron (7.5 mm×7.5 cm); Mobile phase: (A) 10 mM NaPO4 pH 7.4 and (B) 500 mM NaCl in 10 mM NaPO4 pH 7.4; Gradient: 5 min 100% A, 20 min 0% B to 100% B; Flow rate: 1 mL/min; Fluorescence detector: λex 295 nm, λem 360 nm (slit 30 nm); and injection volume, 100 μL.

[4] = Decomposition of PEG-DTB-lysozyme conjugates in cysteine solution, HPLC; type: in vitro ADME; conditions: 0.6 mM cysteine, room temperature, pH 7.4, HPLC
Protocol: as §1
For the conjugates incubated with cysteine, analysis of the aliquots was as done follows. The samples were diluted 1/10 in 10 mM NaPO4 pH 7.4 and analyzed on a carboxymethyl (CM) cation exchanger column.
as §2

[5] = test system: Micrococcus luteus; assay: Micrococcus luteus turbidity assay of active lysozyme after cleavage of the conjugate; type: biochemical
Protocol: A Micrococcus luteus turbidity assay was used to measure the amount of active lysozyme regenerated after cleavage of the conjugate.
At various time points, aliquots from the incubation vials were added to iodoacetamide to a final concentration of 20 mM, in order to stop the cleavage reaction. Samples were stored at 2-8° C. prior to analysis.
Micrococcus luteus stock solution was prepared at 0.3 mg/mL in 100 mM KPO4 pH 7. Lysozyme standards solutions were prepared at 1, 2, 4, 6, 8, and 10 μg/mL in PBS and a lysozyme standard curve was constructed (not shown). The samples from the cleavage reactions were diluted 1/10 in PBS. For the assay, 50 μL of standard, sample, or control were added per well to 96-well microtiter plates. To each well, 200 μL of Micrococcus luteus were added, and without delay, plates were read at 450 nm at 25° C. in a plate reader of a period of 10 min, in 30 second reading intervals.
The slopes (ΔA/min) were calculated for the first 5 minutes of the reading, and the corresponding lysozyme concentrations were extrapolated from the lysozyme standard curve.

Epo: Recombinant, human erythropoietin (EPO, EPREX)
formation of albumin-Epo conjugate [1]: Neither Epo alone nor the noncleavable mPEG-Epo formed the albumin-Epo conjugate

lysozyme: lysozyme as a model therapeutic agent
clearance from the blood stream / circulation lifetime ([2]; 24 hour period): cleared rapidly

mPEG5K-DTB-lysozyme: methoxypolyethylene glycol (5 kDa) joined to lysozyme through a methyl-dithiobenzyl urethane linkage
calculated half-life of remaining conjugate upon incubation in BSA [3]: 5 h | calculated half-life of remaining conjugate upon incubation in cysteine [4]: 0.75 h | active lysozyme regenerated from the cysteine cleavage ([5]; 0.6 mM cysteine, 37° C.): 74 µg/mL | active lysozyme concentration after cleavage with BSA ([5]; 4% BSA, 37° C., after 24 hours): approximately 18 μg/mL | active lysozyme after BSA cleavage as percent of that from cysteine cleavage ([5]; 24 hours): 24% | release of lysozyme from the PEG in saline ([5]; saline at 37° C. for up to 24 hours): did not induce release of the lysozyme

mPEG12K-DTB-lysozyme: methoxypolyethylene glycol (12 kDa) joined to lysozyme through a methyl-dithiobenzyl urethane linkage
calculated half-life of remaining conjugate upon incubation in BSA [3]: 6 h | calculated half-life of remaining conjugate upon incubation in cysteine [4]: 1 h | AUC values, cleavable vs noncleavable conjugate [2]: similar | half-lives, cleavable vs noncleavable conjugate [2]: similar
